Results published in article PMC3656113.

Legend:
[1] = biological target: recombinant human PAFr coupled to the G-protein Giα3β1γ2 (UniProt P25105); test: ELISA
[2] = biological target: recombinant human PAFr coupled to the G-protein Giα2β1γ2 (UniProt P25105); test: ELISA
[3] = biological target: platelet activating factor receptor (PAFr) of 16HBE14 human bronchial epithelial cells (human (endogenous in 16HBE14)) (UniProt P25105)

pili of N. meningitidis strain 8013SBpptA8G (ChoP+) (natural protein)
> 2 fold: fold increase against pili of 8013SB WT [1] | fold increase against pili of 8013SB WT [2] | adherence of 8013SBpptA8G bacteria to Chem-1-PAFr cells, fold increase against 8013SB WT bacteria (fluorescence, 30 min) [3]
